Assay results reported in PMC2914677, “Characterisation of recombinant pyranose oxidase from the cultivated mycorrhizal basidiomycete Lyophyllum shimeji (hon-shimeji)” (Microbial Cell Factories, 2010).
Blank lines part the entries; values can stand above or below the molecule they belong to.

Columns and labels:
PcP2Ox = molecular target: T1, PcP2Ox (Phanerodontia chrysosporium, UniProt Q6QWR1); experiment: absorbance at […] nm; assay type: biochemical; conditions: apparent; electron acceptor, 100 mM D-glucose, oxygen removed with nitrogen, pH 6.5, 30°C, 50 mM potassium phosphate; used as PF6 salt
T1 construct: gene p2ox; C-terminal His6 tag kept, pET21-a(+), E. coli BL21(DE3), IMAC

LsP2Ox = molecular target: T2, LsP2Ox (Lyophyllum shimeji, UniProt Q75ZP8); experiment: absorbance at […] nm; assay type: biochemical; conditions: apparent; electron acceptor, 100 mM D-glucose, oxygen removed with nitrogen, pH 6.5, 30°C, 50 mM potassium phosphate; used as PF6 salt
T2 construct: gene p2ox; full-length cDNA (ORF 1857 bp, 619 residues), C-terminal His6 tag kept, pET21a(+), E. coli Rosetta 2; purified by AIEX and preparative native PAGE; subunit 68,488 Da

TmP2Ox = molecular target: T3, TmP2Ox (Trametes ochracea, UniProt Q7ZA32); experiment: absorbance at […] nm; assay type: biochemical; conditions: apparent; electron acceptor, 100 mM D-glucose, oxygen removed with nitrogen, pH 6.5, 30°C, 50 mM potassium phosphate; used as PF6 salt
T3 construct: gene p2o; C-terminal His6 tag kept, pET21-d(+), E. coli BL21(DE3), IMAC

O=C1C=CC(=O)C=C1 = experiment: purified protein; conditions: apparent, electron acceptor, 100 mM D-glucose, oxygen removed with nitrogen, pH 6.5, 30°C, 50 mM potassium phosphate
[1] = system: O=C1C(Cl)=CC(=Nc2ccc(O)cc2)C=C1Cl; experiment: purified protein; conditions: apparent, electron acceptor, 100 mM D-glucose, oxygen removed with nitrogen, pH 6.5, 30°C, 50 mM potassium phosphate
purified protein [2] = substrate: O=C1C(Cl)=CC(=Nc2ccc(O)cc2)C=C1Cl; experiment: purified protein; assay type: biochemical, Lyophyllum shimeji; conditions: apparent, electron acceptor, 100 mM D-glucose, oxygen removed with nitrogen, pH 6.5, 30°C, 50 mM potassium phosphate
purified protein [3] = substrate: O=C1C=CC(=O)C=C1; experiment: purified protein; assay type: biochemical, Lyophyllum shimeji; conditions: apparent, electron acceptor, 100 mM D-glucose, oxygen removed with nitrogen, pH 6.5, 30°C, 50 mM potassium phosphate

T1 sequence (Q6QWR1 whole entry): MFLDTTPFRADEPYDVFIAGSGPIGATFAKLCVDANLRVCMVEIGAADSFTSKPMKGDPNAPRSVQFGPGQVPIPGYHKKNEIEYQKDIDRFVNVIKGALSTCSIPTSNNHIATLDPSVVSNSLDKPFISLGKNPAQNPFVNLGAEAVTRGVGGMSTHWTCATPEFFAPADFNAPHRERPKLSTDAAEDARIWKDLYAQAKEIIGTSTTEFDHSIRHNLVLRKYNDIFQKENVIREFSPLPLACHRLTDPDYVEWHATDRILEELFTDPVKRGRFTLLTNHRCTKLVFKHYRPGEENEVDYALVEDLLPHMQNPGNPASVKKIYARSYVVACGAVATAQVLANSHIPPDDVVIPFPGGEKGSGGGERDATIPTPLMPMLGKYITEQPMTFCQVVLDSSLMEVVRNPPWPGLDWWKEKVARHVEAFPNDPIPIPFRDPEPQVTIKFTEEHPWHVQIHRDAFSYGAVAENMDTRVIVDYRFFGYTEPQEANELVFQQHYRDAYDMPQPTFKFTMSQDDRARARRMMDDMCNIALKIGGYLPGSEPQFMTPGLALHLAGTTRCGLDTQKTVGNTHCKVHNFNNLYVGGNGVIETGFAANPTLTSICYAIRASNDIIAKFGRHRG

Km (PcP2Ox): 330 µM
Km (LsP2Ox): 187 µM
Km (TmP2Ox): 507 µM
Molecule: C1=CCC=C1.C1=CCC=C1.[Fe+3] [ferrocenium ion]

Molecule: TmP2Ox (Trametes ochracea)
Km (O=C1C=CC(=O)C=C1): 253 µM
kcat (O=C1C=CC(=O)C=C1): 225 s⁻¹
kcat/Km (O=C1C=CC(=O)C=C1): 895000 M⁻¹ s⁻¹
Km [1]: 413 µM
kcat [1]: 42 s⁻¹
kcat/Km [1]: 102000 M⁻¹ s⁻¹

B1: LsP2Ox (Lyophyllum shimeji) (protein)
chain: MSLSTEQMLRDYPRSMQINGQIPKNAIHETYGNDGVDVFIAGSGPIGATYAKLCVEAGLRVVMVEIGAADSFYAVNAEEGTAVPYVPGYHKKNEIEFQKDIDRFVNVIKGALQQVSVPVRNQNVPTLDPGAWSAPPGSSAISNGKNPHQREFENLSAEAVTRGVGGMSTHWTCSTPRIHPPMESLPGIGRPKLSNDPAEDDKEWNELYSEAERLIGTSTKEFDESIRHTLVLRSLQDAYKDRQRIFRPLPLACHRLKNAPEYVEWHSAENLFHSIYNDDKQKKLFTLLTNHRCTRLALTGGYEKKIGAAEVRNLLATRNPSSQLDSYIMAKVYVLASGAIGNPQILYNSGFSGLQVTPRNDSLIPNLGRYITEQPMAFCQIVLRQEFVDSVRDDPYGLPWWKEAVAQHIAKNPTDALPIPFRDPEPQVTTPFTEEHPWHTQIHRDAFSYGAVGPEVDSRVIVDLRWFGATDPEANNLLVFQNDVQDGYSMPQPTFRYRPSTASNVRARKMMADMCEVASNLGGYLPTSPPQFMDPGLALHLAGTTRIGFDKATTVADNNSLVWDFANLYVAGNGTIRTGFGENPTLTSMCHAIKSARSIINTLKGGTDGKNTGEHRNL
notes: full-length cDNA (ORF 1857 bp, 619 residues), C-terminal His6 tag kept, pET21a(+), E. coli Rosetta 2; purified by AIEX and preparative native PAGE; subunit 68,488 Da
Km (purified protein [2]): 187 µM
kcat (purified protein [2]): 67.3 s⁻¹
kcat/Km (purified protein [2]): 361000 M⁻¹ s⁻¹
Km (purified protein [3]): 33 µM
kcat (purified protein [3]): 92.3 s⁻¹
kcat/Km (purified protein [3]): 2.76e+06 M⁻¹ s⁻¹
